Measurements taken from patent US20070178531A1 (BIOCHECK, published 2007).

Key:
Human Id1: Histidine [1] = target: T1, Human Id1: Histidine (human, UniProt P41134 1-155, limits assumed); assay: ELISA, Ab 0.500 µg/ml
T1 construct: Fusion protein made in E. coli from vector pGW07; also called h-Id1: his; not shown: His tag
T1 sequence (looked up): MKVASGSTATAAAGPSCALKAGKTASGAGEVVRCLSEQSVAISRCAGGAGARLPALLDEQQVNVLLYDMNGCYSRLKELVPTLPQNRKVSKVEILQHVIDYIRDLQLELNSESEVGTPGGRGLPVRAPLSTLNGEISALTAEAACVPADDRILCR
Procedure: (§1) The rabbit monoclonal anti-human Id3 (clone #3-3) and the rabbit monoclonal anti-mouse/human Id3 (clones #6-1, 16-1, 17-3, and 42-1) produced in Example 6 were tested reactivity against the following antigens: mouse Id1:His, human Id1:His, mouse Id2:His, human Id2:His, mouse Id3:His, human Id3:His, mouse Id4:His, human Id4:His and GST.
(§2) 1. Microtiter wells (prepared in accordance with Example 6) were coated (0.1 μg/well) with mouse Id1:His, human Id1:His, human Id2:His, human Id3:His, and 1.0 μg/well with GST. [0155] 2. Antibody Diluent: 0.25% (w/v) BSA in 0.015M KPO₄ Buffer, 0.85% (w/v) NaCl, 0.1% (w/v) NaN₃, pH=7.40 [0156] 3. Rabbit monoclonal anti-human Id3 (clone #3-3) prepared in Example 7 was diluted to […] with the antibody diluent. […] 4. Rabbit monoclonal anti-mouse/human Id3 (clones #6-1, 16-1, 17-3, 42-1) prepared in Example 7 was diluted to 0.005, 0.010, 0.025, 0.05, 0.10, 0.25, and 0.50 μg/ml with the antibody diluent. […] 5. Conjugate Diluent: 50% (v/v) which consists of an aqueous solution containing Fetal Bovine Serum in 0.05 M Tris, 1% (v/v) Proclin-300, pH 7.6. [0159] 6. Conjugate: Goat anti-rabbit IgG (H+L)-HRP conjugate. [0160] 7. TMB reagent. […] 8. Stop solution (1 N HCI). Method
(§3) 1. Dispense 100 μL of antibody diluent, diluted rabbit monoclonal human Id3, and mouse/human Id3 hybridoma supernatants into appropriate wells. […] 2. Incubate at room temperature with mechanical shaking at 750 rpm for 90 minutes. [0165] 3. Remove the incubation mixture by flicking plate content into an appropriate waste container followed by rinsing the wells 5 times with distilled water. [0166] 4. Strike the wells sharply onto absorbent paper or paper towels to remove all residual water droplets. [0167] 5. Dispense 100 μL of 1:50,000 Goat Anti-Rabbit IgG-HRP Conjugate Reagent into each well. Gently mix for 5 seconds. [0168] 6. Incubate at room temperature with mechanical shaking at 750 rpm for 90 minutes. [0169] 7. Repeat procedures 3 and 4. [0170] 8. Dispense 100 μL of TMB Reagent into each well. Gently mix for 5 seconds. [0171] 9. Incubate at room temperature with mechanical shaking at 750 rpm for 20 minutes. […] 10.

Mouse Id3: Histidine [2] = target: T2, Mouse Id3: Histidine (mouse, UniProt P41133 1-119); assay: ELISA, Ab 0.500 µg/ml
T2 construct: Fusion protein made in E. coli from vector pGW07; also called m-Id3: His; Mouse Id3 (coated wells); not shown: His tag
T2 sequence: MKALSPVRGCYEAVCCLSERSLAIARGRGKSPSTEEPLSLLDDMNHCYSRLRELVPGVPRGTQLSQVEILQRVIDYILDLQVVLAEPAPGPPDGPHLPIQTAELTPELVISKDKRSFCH
Procedure: as §1, §2, §3

[3] = target: T3, glutathione S-transferase (GST) (UniProt P08515 1-218 = GST); assay: ELISA, Ab 0.500 µg/ml
T3 construct: also called carrier protein GST
T3 sequence (P08515 whole entry): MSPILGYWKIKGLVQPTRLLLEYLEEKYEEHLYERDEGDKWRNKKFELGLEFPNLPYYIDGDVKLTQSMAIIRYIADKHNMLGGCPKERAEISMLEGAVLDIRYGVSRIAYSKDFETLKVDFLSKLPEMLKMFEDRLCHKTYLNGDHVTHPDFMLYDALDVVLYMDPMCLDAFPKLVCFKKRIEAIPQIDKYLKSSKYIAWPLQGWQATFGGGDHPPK
Procedure: as §1, §2, §3

Mouse Id2: Histidine [4] = target: T4, Mouse Id2: Histidine (mouse, UniProt P41136 1-134, limits assumed); assay: ELISA, Ab 0.500 µg/ml
T4 construct: Fusion protein made in E. coli from vector pGW07; also called m-Id2: His; not shown: His tag
T4 sequence (looked up): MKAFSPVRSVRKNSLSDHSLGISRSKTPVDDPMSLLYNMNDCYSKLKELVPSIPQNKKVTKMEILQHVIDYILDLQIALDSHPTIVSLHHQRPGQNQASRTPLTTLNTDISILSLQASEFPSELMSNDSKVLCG
Procedure: as §1, §2, §3

Human Id3: Histidine [5] = target: T5, Human Id3: Histidine (human, UniProt Q02535 1-119 at identity 1.00)); assay: ELISA, Ab 0.500 µg/ml
T5 construct: Fusion protein made in E. coli from vector pGW07; also called h-Id3: His; Human Id3 (coated wells); not shown: His tag
T5 chain: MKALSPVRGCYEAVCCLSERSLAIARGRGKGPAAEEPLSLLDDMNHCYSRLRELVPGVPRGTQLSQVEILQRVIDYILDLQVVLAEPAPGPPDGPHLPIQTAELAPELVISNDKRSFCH
Procedure: as §1, §2, §3

Human Id2: Histidine = target: T6, Human Id2: Histidine (human, UniProt Q02363 1-134, limits assumed); assay: ELISA, Ab 0.500 µg/ml
T6 construct: Fusion protein made in E. coli from vector pGW07; also called h-Id2: His; not shown: His tag
T6 sequence (looked up): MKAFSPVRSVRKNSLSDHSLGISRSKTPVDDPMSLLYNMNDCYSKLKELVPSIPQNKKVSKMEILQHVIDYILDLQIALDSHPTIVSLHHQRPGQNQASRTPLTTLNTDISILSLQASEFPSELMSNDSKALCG
Procedure: as §1, §2, §3

Human Id1: Histidine [6] = target: T1, Human Id1: Histidine; assay: ELISA, Ab 0.050 µg/ml
Procedure: as §1, §2, §3

Mouse Id3: Histidine [7] = target: T2, Mouse Id3: Histidine; assay: ELISA, Ab 0.050 µg/ml
Procedure: as §1, §2, §3

Mouse Id1: Histidine = target: T7, Mouse Id1: Histidine (mouse, UniProt P20067-2 1-148, limits assumed); assay: ELISA, Ab 0.050 µg/ml
T7 construct: Fusion protein made in E. coli from vector pGW07; also called m-Id1-His; not shown: His tag
T7 sequence (looked up): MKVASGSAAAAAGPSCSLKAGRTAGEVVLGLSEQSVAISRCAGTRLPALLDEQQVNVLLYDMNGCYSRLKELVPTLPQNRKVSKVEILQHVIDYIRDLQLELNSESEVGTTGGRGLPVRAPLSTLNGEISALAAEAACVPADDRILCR
Procedure: as §1, §2, §3

Mouse Id2: Histidine [8] = target: T4, Mouse Id2: Histidine; assay: ELISA, Ab 0.050 µg/ml
Procedure: as §1, §2, §3

Human Id3: Histidine [9] = target: T5, Human Id3: Histidine; assay: ELISA, Ab 0.050 µg/ml
Procedure: as §1, §2, §3

| Binder | A450 (Human Id1: Histidine [1]) [A450] | A450 (Mouse Id3: Histidine [2]) [A450] | A450 [3] [A450] | A450 (Mouse Id2: Histidine [4]) [A450] | A450 (Human Id3: Histidine [5]) [A450] | A450 (Human Id2: Histidine) [A450] | A450 (Human Id1: Histidine [6]) [A450] | A450 (Mouse Id3: Histidine [7]) [A450] | A450 (Mouse Id1: Histidine) [A450] | A450 (Mouse Id2: Histidine [8]) [A450] | A450 (Human Id3: Histidine [9]) [A450] |
| --- | --- | --- | --- | --- | --- | --- | --- | --- | --- | --- | --- |
| rabbit monoclonal anti-mouse/human Id3, clone #BCH-4/#16-1 (antibody, V domains shown, Rabbit IgG from a rabbit hybridoma; also called m/h Id3 MoAb 16-1) VH: QSVEESGGRLVTPGTPLTLTCTASGFSLSSYYIHWVRQAPGKALEWIGYISDGGTTYYASWAKGRFTISKTSSTTVDLKMTSLTTEDTATYFCARQGFNIWGPGTLVTVSL VL: AVLTQTPSPVSAAVGGTVTISCQSSQSVYNNNWLSWFQQKSGQPPKLLIYETSKLESGVPSRFKGSGSGTQFTLTIIDVQCDDAATYYCLGGYWTTSDNNIFGGGTEVVVK | 0.051 | 3.61 | 0.053 | 0.067 | 3.37 | 0.058 | 0.047 | 1.57 | 0.044 | 0.051 | 1.4 |
| rabbit monoclonal anti-mouse/human Id3, clone #BCH-4/#17-3 (antibody, V domains shown, Rabbit IgG from a rabbit hybridoma; also called m/h Id3 MoAb 17-3; BCH-3/#17-3) VH: QSVEESGGRLVTPGTPLTLTCTASGFSLSNVYIHWVRQAPGKGLEWIGYISDGDTARYATWAKGRFTISKTSSTTVNLKMTSLTTEDTATYFCARQGFNIWGPGTLVTVSL VL: AVLTQTPSPVSAAVGGTVSISCQSSQSVWNNNWLSWFQQKPGQPPKLLIYETSKLESGVPSRFKGSGSGTQFTLTISDVQCDDAATYYCLGGYWTTSDNNVFGGGTEVVVK | 0.049 | 3.74 | 0.053 | 0.069 | 3.69 | 0.053 | 0.044 | 2.19 | 0.048 | 0.054 | 1.8 |
| rabbit monoclonal anti-mouse/human Id3, clone #BCH-4/#6-1 (antibody, V domains shown, Rabbit IgG from a rabbit hybridoma; also called m/h Id3 MoAb 6-1) VH: QSVEESGGRLVTPGTPLTLTCTASGFSLSNVYIHWVRQAPGKGLEWIGYISDGDTARYATWAKGRFTISKTSSTTVNLKMTSLTTEDTATYFCARQGFNIWGPGTLVTVSL VL: AVLTQTPSPVSAAVGGTVSISCQSSQSVWNNNWLSWFQQKPGQPPKLLIYETSKLESGVPSRFKGSGSGTQFTLTISDVQCDDAATYYCLGGYWTTSDNNVFGGGTEVVVK | 0.048 | 3.81 | 0.054 | 0.066 | 3.56 | 0.063 | 0.052 | 1.75 | 0.046 | 0.051 | 1.61 |
| rabbit monoclonal anti-mouse/human Id3, clone #BCH-4/#42-1 (antibody, V domains shown, Rabbit IgG from a rabbit hybridoma; also called m/h Id3 MoAb 42-1) VH: QSVEESGGRLVTPGTPLTLTCTASGFSLSSYYIHWVRQAPGKALEWIGYISDGGTTYYASWAKGRFTISKTSSTTVDLKMTSLTTEDTATYFCARQGFNIWGPGTLVTVSL VL: AVLTQTPSPVSAAVGGTVTISCQSSQSVYNNNWLSWFQQKSGQPPKLLIYETSKLESGVPSRFKGSGSGTQFTLTIIDVQCDDAATYYCLGGYWSTSDNNIFGGGTEVVVK | 0.047 | 3.63 | 0.049 | 0.075 | 3.75 | 0.057 | 0.045 | 2.23 | 0.05 | 0.051 | 2 |
| rabbit monoclonal anti-human Id3, clone #BCH-4/#3-3 (antibody, V domains shown, Rabbit IgG from a rabbit hybridoma; also called h Id3 MoAb 3-3) VH: QSVEESGGRLVTPGTPLTLTCTVSGIDLSSYAMSWVRQAPGKGLEWIGVIFPSNNVYYASWAKGRFTISKTSTTVDLKITSPTTEDTATYFCASMGAFDSWGPGTLVTVSS VL: QVLTQTPSPVSAAVGGTVTINCQASQSIYNDNDLAWFQQKPGQPPKLLIYDASTLTSGVPSRFKGSGSGTQFTLTISDLDCDDAATYYCAARYSGNIYGFGGGTEVVVK | 0.048 |  | 0.05 | 0.05 |  | 0.047 | 0.05 |  | 0.049 | 0.048 |  |
